From a protein production outcome set (Wang et al. 2014)

Experiment: label from the status in PepcDB records

| Sequence | protein production |
| --- | --- |
| MLHLLTLSSLGRDLFNIKMLIVILITIGLITLMTILTYLLEQQVHRRQNRYWTIGAHGAEALSVLISMILLRQIFITLNSGSIISWTYATVQLTILLFSLNTMRNLAVEIINLLMPLFIYGQAIWLGHSTQYLPVFLAMAIILISTVVYITHNYQELHATQWKYLLFQILYSGTWWGVIWSVHPFKLSHTLVIILAFVLYMWLIRLAVNRVQKFFNEVLTFDQQVNYDELTGIRNRASFDTHAREVFAAYQHHQMGPVTMVMFDIDHFKAFNDQYGHLAGDAVLRHVAHFVELELNQRSTHGQIFRYGGEEFVIIFRGISALEAGQIMRTIQRKLKTVPIKFNVQTLNVTVSIGISELQPTDQTFTDWFVRVDDYLYQSKQAGRDQTTVESQLLTD | failed |
| AQQQELPVPKPHQLKWHEAEMGAVFHYDLHVFDGIRYGQGNNRINPIEDYNIFNPTELNTDQWVQAAKAAGCKFAVLTATHETGFGLWQSDVNPYCLKAVKWRDGKGDIVRDFVNSCRKYGLQPGIYIGIRWNSLLGIHNFKAEGEGAFARNRQAWYKRLCEKMVTELCTRYGDLYMIWFDGGADDPRADGPDVEPIVNKYQPNCLFYHNIDRADFRWGGSETGTVEYPCWSTFPVPCSHHKRIESSIDQLELLKHGDKNGRYWVPAMADTPLRGANGRHEWFWEPDDENNIYPLNTLMDKYEKSVGRNATLILGLTPDPTGLIPAGDAQRLKEMGDEINRRFSSPIARISGQKKSLTLKLGKEQSVNYCIIQENIKNGERIRQYQIEAKVNGKWQTVCKGESVGHKRIEKFEPVEATALRLTVSESIALPDIINFSAYSVK | not failed |
| MTQDPIANLKLARKGPIVSIIVYLSLSVAKLLAGYLLNASSLIADGFNNLSDIVGNVALLIGLHLASQPADANHKFGHWKIEDLSSLVTSFIMFLVGFQVLIHTIKSIFSGQQVDIDPLGAIVGIVSAFVMLGVYVFNKRLSKRVKSSALVAASKDNLADAVTSIGTSIAIIAASLHLPVIDHIAAMIITFFILKTAFDIFMESSFSLSDGFDSRHLKKYEKAILEIPKIVAVKSQRARTYGSNVYLDIVLEMNPDLSVYESHSITEKVEQLLSDQFSIYDIDIHVEPAMIPEEEIFDNVAKKLYRYEKLILSKVPDYDHYIAKSFQLIDANGQTVNYEQFLNQEIYYPSNFNHFQIESISQKTMLVTYQLNGNQRTSIWRRHESWSLLFHQITPIAKKQLHHTHYRIVKM | failed |
| MAFDGCCPDCKLPGDDCPLIWGACNHAFHLHCILKWVNSQTSQAHCPMCRREWQFKE | failed |
| MLTAAVLLPLVGALVAWIVPDNRLRPLVLPAVAVPHFLLTLALLAWTPPPSPQGWIFLDPLGKIVLLCISTLFLICAVYAVGYLAYRRDRSNRVLCMGLLACLSAMTLVTASQHLGLLWVAVETTTVTMAPLIYFNRNARSIEATWKYLLICSVGIALALLGLFFLAYATLVAHRDATLLLGPILASARELNPGWLHASFIFMLVGFGSKMGIAPLHSWKPDAYGEAPGLVGALLAGGLVNCAFLAILRVYQISLASGGEYLFFQKALLTMGLISMGLAAVFMARQADFKRMLAYSSVEHVGILAVALGLGKGALFGALFHLLNNGLTKGVLFLSSGNIHRSFNSKSTEVVRGALARLPWSAGLFLAGFIAITGSPPFSPFVSEFSIVSSAFVEGRYLVGGLFLFFLAVIFIGMALTVLPLVMGVPPADAERTDYRDRLLTVGPPLALLGLILMLGVWLPEPLLRLLGEGAALLEAKP | failed |
| MKIALINENSQASKNHIIYDSLKEATDKKGYQLFNYGMRGEEGESQLTYVQNGLMAAILLNTKAVDFVVTGCGTGVGAMLALNSFPGVVCGLAVDPTDAYLYSQINGGNALSIPYAKGFGWGAELTLKLMFERLFAEEMGGGYPRERVIPEQRNARILNEVKQITHNDLMTILKIIDQDFLKDTISGKYFQEYFFENCQDDEVAAYLKEVLA | failed |
| MTVKAMALNTNQLFAYLNRGDIAEFKFSPLFTTLFFPNVATFSTQNIMLDTLDIEEVTMSAFCSPMVGSQVQRDKGYETSTIKPGYMKPKHEIDPTKTIMRMAGEDPAQLNDPTYRRMRLITGNMRRQINAIKARVEWLAVNAVTTGKNIIEGEGIERYEIDWKIPEKNIIEQADGKKWSEQDKETHYPIYDIELYADQAGCPANVMIMGAEVWRTLRSFKKFRELYDLSRGSESAAELACKNLGEVVSFKGYLGDLALIVYSGKYTDSDGTEKYFLEPDLLVLGNTNNKGLVAYGAIMDQEAVRTGATQNMFYPKNWIEDGDPAIEYVQTHSAPQPVPADIRKFVTVKIA | not failed |
| MITYPKQMRDSGFKFEFFCDQGGYYQHVMDHLISCTQRQETPVNISNIPKCKAVLVTSLTGEIIKAQGRHLDMLLIVFED | failed |
| MKGWKRNLYILVVCQFLVVSAMTMIIPFLPLYLQELGVTDPSEVSLWAGIIFAANFLTAFLFSPLWSRLADRYGRKMMILRSGFGMALIIGLTGFAQGPLSLLCLRLLNGVISGFIPASIGLVATNTPKEKAGYALGFLQAGAVSGGICGPLIGGIMAQAFGYRMIFFLTGLCIFIAALVVLLFVNEQFTPNPKEEKTNTWGEFKKITAIRPIFSLYVVVFLIQFAVMGVNPLISLFVEELVSGVNVALFAGLAISATGFANMLSSMQLGKLSDKAGAHHVLFFCLLGTVIFMIPQAFVQQLWQLIVLRFFVGLSLGGLLPAANALVRMHAPKGMESRTYGFSTSALYLGNMVGPTVGGAVVATVGIRGLFLISAFTLLLTVWIVKGKVMPASDKQFRYEQNERKIASS | failed |
| MYEAHFGLKQLPFTLTPNTSLFHGLSPHYEAIHTVLSAISMGEGIIKVTGEVGTGKTLVCRMLINELPSNVELLYLPNPVMNGHELRQALAKELWLDQSGDDIALIDRIHEKIIDLHAEGKLVVVFIDEAQALSDEALETLRLFGNLETDYKKLLQIVLFGQPELDERLQQHNLRQLRQRITFSALLRALNMNETVAYIRYRIAESGCENNPFSLVQMKAIWKATNGIPRLINQVCHKSLLIAFSEQVNNVPSKAVFNAIIDTADTVKPKHYFPTFWGWRVSLEHHHHHH | not failed |
